The results in this text go back to US20240166767A1 (SCIRHOM, published 2024).

The target in test [1] is T1, human iRhom1 full length wild type C-terminally tagged with 3 consecutive copies of the T7 epitope (human, UniProt Q96CC6 1-855).
T1 construct: also called hiR1-FL-WT-T7; human iRhom1 variant
T1 sequence: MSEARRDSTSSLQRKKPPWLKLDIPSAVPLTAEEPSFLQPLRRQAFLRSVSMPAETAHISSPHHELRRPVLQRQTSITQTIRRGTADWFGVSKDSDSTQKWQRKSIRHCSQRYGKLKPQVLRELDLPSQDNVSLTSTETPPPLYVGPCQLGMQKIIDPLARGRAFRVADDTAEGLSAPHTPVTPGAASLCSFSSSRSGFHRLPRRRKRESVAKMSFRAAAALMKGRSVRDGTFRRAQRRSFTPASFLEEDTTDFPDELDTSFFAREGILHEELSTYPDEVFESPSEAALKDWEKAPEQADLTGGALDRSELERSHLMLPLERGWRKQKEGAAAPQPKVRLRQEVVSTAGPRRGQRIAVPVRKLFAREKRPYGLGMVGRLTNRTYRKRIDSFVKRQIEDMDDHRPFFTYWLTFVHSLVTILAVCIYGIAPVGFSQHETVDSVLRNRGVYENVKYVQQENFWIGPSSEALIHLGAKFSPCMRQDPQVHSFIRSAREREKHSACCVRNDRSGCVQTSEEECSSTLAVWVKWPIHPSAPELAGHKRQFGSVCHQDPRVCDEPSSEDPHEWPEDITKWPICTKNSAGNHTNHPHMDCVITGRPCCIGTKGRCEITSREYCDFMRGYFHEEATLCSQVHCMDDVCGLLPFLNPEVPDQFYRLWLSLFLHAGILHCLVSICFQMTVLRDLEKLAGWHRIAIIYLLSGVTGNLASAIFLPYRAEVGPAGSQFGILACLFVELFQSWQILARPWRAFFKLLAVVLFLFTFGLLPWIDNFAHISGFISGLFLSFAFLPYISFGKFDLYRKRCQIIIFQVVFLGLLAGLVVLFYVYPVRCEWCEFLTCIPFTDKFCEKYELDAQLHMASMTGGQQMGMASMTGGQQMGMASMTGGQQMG
In words: FACS on MEF-DKO-hiR1-FL-WT-T7 cells. The protocol: In brief, in addition to immortalized MEF-DKO-EV control cells and MEF-DKO-hiR2-FL-WT-T7 cells (as already described in example 3), MEF-DKO-hiR1-FL-WT-T7 cells were harvested with 10 mM EDTA in PBS, washed and resuspended in FACS buffer (PBS, 3% FBS, 0.05% sodium azide), and seeded in Nunc U-bottom 96-well plates (Thermo Fisher Scientific, USA) at approximately 3×10⁵ cells per well. To pellet cells and remove supernatants, the plates were centrifuged at 1,500 rpm and 4° C. for 3 minutes. For primary staining, cells were resuspended in 100 μl per well of either FACS buffer alone (controls), mouse monoclonal anti-T7 IgG (Merck Millipore, USA) at 3 μg/ml FACS buffer or the humanized antibodies 16-B-03, 16-B-05, 16-B-07, 23-B-04, 42-B-02, 42-B-04 of the invention also at 3 μg/ml FACS buffer and incubated on ice for 1 hour. Afterwards, plates were centrifuged at 1,500 rpm and 4° C. for 3 minutes and washed twice with 200 μl per well of FACS buffer. For secondary staining of previous anti T7 staining, cells were spun down and resuspended in 100 μl per well of PE-conjugated goat anti-mouse IgG F(ab′)2 detection fragment (Dianova, Germany) diluted 1:100 in FACS buffer. For secondary staining of previous staining with humanized antibodies of invention, cells were spun down and resuspended in 100 μl per well of PE-conjugated goat anti-human IgG F(ab′)2 detection fragment (Dianova, Germany) diluted 1:100 in FACS buffer. Protected from light, the cell suspensions were incubated on ice for 1 hour. Plates were then centrifuged at 1,500 rpm and 4° C. for 3 minutes and washed three times with 200 μl per well of FACS buffer. Finally, cells were resuspended in 150 μl per well of FACS buffer and analyzed using a BD Accuri™ C6 Plus flow cytometer (Becton Dickinson, Germany).

For a further test, the target named is T2, endogenous human iRhom2 (human, UniProt Q6PJF5 1-856).
T2 sequence: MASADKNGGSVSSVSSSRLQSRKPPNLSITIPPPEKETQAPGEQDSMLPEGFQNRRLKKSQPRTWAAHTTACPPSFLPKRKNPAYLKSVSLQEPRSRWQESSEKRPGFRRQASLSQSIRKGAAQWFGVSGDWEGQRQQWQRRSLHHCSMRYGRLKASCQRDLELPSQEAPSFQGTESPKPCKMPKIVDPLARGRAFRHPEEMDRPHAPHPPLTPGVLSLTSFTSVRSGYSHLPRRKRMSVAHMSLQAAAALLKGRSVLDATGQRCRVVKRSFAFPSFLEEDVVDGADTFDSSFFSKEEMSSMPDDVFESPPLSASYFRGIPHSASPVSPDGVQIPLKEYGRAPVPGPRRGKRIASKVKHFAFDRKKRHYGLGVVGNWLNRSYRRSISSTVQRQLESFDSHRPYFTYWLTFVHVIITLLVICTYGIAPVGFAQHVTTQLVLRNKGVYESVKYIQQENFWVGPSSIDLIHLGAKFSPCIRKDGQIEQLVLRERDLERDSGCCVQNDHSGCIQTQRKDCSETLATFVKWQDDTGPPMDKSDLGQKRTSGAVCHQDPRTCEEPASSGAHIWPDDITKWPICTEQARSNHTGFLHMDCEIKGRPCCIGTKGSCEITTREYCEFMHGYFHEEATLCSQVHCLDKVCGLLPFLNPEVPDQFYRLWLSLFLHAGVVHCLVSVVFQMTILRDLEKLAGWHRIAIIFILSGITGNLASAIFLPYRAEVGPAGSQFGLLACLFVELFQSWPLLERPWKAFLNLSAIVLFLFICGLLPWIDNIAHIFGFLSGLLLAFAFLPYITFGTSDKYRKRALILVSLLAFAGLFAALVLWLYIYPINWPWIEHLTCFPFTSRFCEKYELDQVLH
Kind of test: cell-based or functional assay.

B1: humanized antibody 42-B-04 (antibody, V domains shown)
VH: QVTLRESGPALVKPTQTLTLTCTFSGFSLSTFGRGVGWIRQPPGKALEWLAHIWWDDEKYYNSALKSRLTISKDTSKNQVVLTITNMDPVDTATYYCARIQNYGSNYWYFDVWGQGTLVTVSS
VL: AIQLTQSPSSLSASVGDRVTITCRASSRISYMFWYQQKPGKAPKVLIYDTSNLASGVPSRFSGSGSGTDYTLTISSLQPEDFATYYCQQWNAYPLTFGQGTKLEIK
notes: Tested as whole humanized antibody produced in CHO cells and detected with anti-human IgG; the general methods speak of human IgG1/Kappa; also called clone 42-B-04
With B1, in test [1], the binding result is on record as “no binding (tested: 3 µg/ml)”. For the same molecule, in the test with endogenous human iRhom2, the “percent inhibition of LPS-induced release of TNFα from PBMCs from healthy donors (ELISA, antibody 3 µg/ml)” value came to 68.5%; the “percent inhibition of LPS-induced release of TNFα from THP-1 cells (ELISA, antibody 3 µg/ml)” value was found to be 76.1%; the “percent inhibition of PMA-induced release of HB-EGF from PBMCs from healthy donors (ELISA, antibody 3 µg/ml)” value was 66.7%; the “percent inhibition of PMA-induced release of HB-EGF from THP-1 cells (ELISA, antibody 3 µg/ml)” value stood at 86.2%. Moreover, in the test with endogenous human iRhom2, the “percent inhibition of PMA-induced release of HB-EGF from U-937 cells (ELISA, antibody 3 µg/ml)” value was determined as 99.4%; the “percent inhibition of PMA-induced release of IL-6R from PBMCs from healthy donors (ELISA, antibody 3 µg/ml)” value was 78.4%; the “percent inhibition of PMA-induced release of IL-6R from THP-1 cells (ELISA, antibody 3 µg/ml)” value was found to be 71.6%; the “percent inhibition of PMA-induced release of IL-6R from U-937 cells (ELISA, antibody 3.33 µg/ml)” value is 82.4%. In addition, in the test with endogenous human iRhom2, the “percent inhibition of PMA-induced release of TGFα from PC3 cells (ELISA, antibody 10 µg/ml)” value (“percent inhibition … (ELISA, antibody 10 µg/ml)” for short) was 19.5% and the “percent inhibition of PMA-induced release of TNFα from U-937 cells (ELISA, antibody 3.33 µg/ml)” value was determined as 87.9%.

B2: humanized antibody 23-B-04 (antibody, V domains shown)
VH: QVTLRESGPALVKPTQTLTLTCTFSGFSLSTFGMGVGWIRQPPGKALEWLAHIWWDDEKYYNSALKSRLTISKDTSKNQVVLTITNMDPVDTATYYCARISNYGSNYWYFNVWGQGTLVTVSS
VL: AIQLTQSPSSLSASVGDRVTITCRASSSVSYMYWYQQKPGKAPKVLIYDTSNLASGVPSRFSGSGSGTDYTLTISSLQPEDFATYYCQQWNAYPLTFGQGTKLEIK
notes: Tested as whole humanized antibody produced in CHO cells and detected with anti-human IgG; the general methods speak of human IgG1/Kappa; also called clone 23-B-04
With B2, the binding result in test [1] is “no binding (tested: 3 µg/ml)”. Besides, in the test with endogenous human iRhom2, the “percent inhibition of LPS-induced release of TNFα from PBMCs from healthy donors (ELISA, antibody 3 µg/ml)” value was 59.4%; the “percent inhibition of LPS-induced release of TNFα from THP-1 cells (ELISA, antibody 3 µg/ml)” value came out at 77.6%; the “percent inhibition of PMA-induced release of HB-EGF from PBMCs from healthy donors (ELISA, antibody 3 µg/ml)” value amounted to 49.6%; the “percent inhibition of PMA-induced release of HB-EGF from THP-1 cells (ELISA, antibody 3 µg/ml)” value was determined as 84.4%. In the test with endogenous human iRhom2, the “percent inhibition of PMA-induced release of HB-EGF from U-937 cells (ELISA, antibody 3 µg/ml)” value worked out at 99.5%; the “percent inhibition of PMA-induced release of IL-6R from PBMCs from healthy donors (ELISA, antibody 3 µg/ml)” value worked out at 64.6%; the “percent inhibition of PMA-induced release of IL-6R from THP-1 cells (ELISA, antibody 3 µg/ml)” value stood at 70.1%; the “percent inhibition of PMA-induced release of IL-6R from U-937 cells (ELISA, antibody 3.33 µg/ml)” value was found to be 77.8%. Moreover, in the test with endogenous human iRhom2, the “percent inhibition … (ELISA, antibody 10 µg/ml)” value is 21.3% and the “percent inhibition of PMA-induced release of TNFα from U-937 cells (ELISA, antibody 3.33 µg/ml)” value was 77.2%.

B3: humanized antibody 42-B-02 (antibody, V domains shown)
VH: QVTLRESGPALVKPTQTLTLTCTFSGFSLSTFGRGVGWIRQPPGKALEWLAHIWWDDEKYYNSALKSRLTISKDTSKNQVVLTITNMDPVDTATYYCARIQNYGSNYWYFDVWGQGTLVTVSS
VL: AIQLTQSPSSLSASVGDRVTITCRASSRISYMFWYQQKPGKAPKVLIYDTSNLASGVPSRFSGSGSGTDYTLTISSLQPEDFATYYCQQWNSYPLTFGQGTKLEIK
notes: Tested as whole humanized antibody from transient expression of heavy chain/kappa light chain pairs in CHO cells, detected with anti-human IgG; the general methods speak of human IgG1/Kappa; also called clone 42-B-02
With B3, the binding result in test [1] is on record as “no binding (tested: 3 µg/ml)”. In the test with endogenous human iRhom2, the “percent inhibition of LPS-induced release of TNFα from PBMCs from healthy donors (ELISA, antibody 3 µg/ml)” value stood at 64.3%; the “percent inhibition of LPS-induced release of TNFα from THP-1 cells (ELISA, antibody 3 µg/ml)” value stood at 75.2%; the “percent inhibition of PMA-induced release of HB-EGF from PBMCs from healthy donors (ELISA, antibody 3 µg/ml)” value amounted to 59.2%; the “percent inhibition of PMA-induced release of HB-EGF from THP-1 cells (ELISA, antibody 3 µg/ml)” value stood at 81.2%. Moreover, in the test with endogenous human iRhom2, the “percent inhibition of PMA-induced release of HB-EGF from U-937 cells (ELISA, antibody 3 µg/ml)” value turned out to be 98.8%; the “percent inhibition of PMA-induced release of IL-6R from PBMCs from healthy donors (ELISA, antibody 3 µg/ml)” value came to 73.4%; the “percent inhibition of PMA-induced release of IL-6R from THP-1 cells (ELISA, antibody 3 µg/ml)” value turned out to be 68.5%; the “percent inhibition of PMA-induced release of IL-6R from U-937 cells (ELISA, antibody 3.33 µg/ml)” value amounted to 78.3%. Moreover, in the test with endogenous human iRhom2, the “percent inhibition … (ELISA, antibody 10 µg/ml)” value was found to be 6.4% and the “percent inhibition of PMA-induced release of TNFα from U-937 cells (ELISA, antibody 3.33 µg/ml)” value came out at 85%.

B4: humanized antibody 16-B-07 (antibody, V domains shown)
VH: QVTLRESGPALVKPTQTLTLTCTFSGFSLSTFALGVGWIRQPPGKALEWLAHIWWDEDKYYNPALKSRLTISKDTSKNQVVLTITNMDPVDTATYYCARITTYYYGMDYWGQGTLVTVSS
VL: EIVMTQSPDFQSVTPKEKVTITCRASQSIGNHLHWYQQKPDASPKLLIKYASQSISGVPSRFSGSGSGTDFTLTINSLEAEDAATYFCQQSYQWPLTFGQGTKLEIK
notes: Tested as whole humanized antibody produced in CHO cells and detected with anti-human IgG; the general methods speak of human IgG1/Kappa; also called clone 16-B-07
In the case of B4, the binding result in test [1] is listed as “no binding (tested: 3 µg/ml)”. Also, in the test with endogenous human iRhom2, the “percent inhibition of LPS-induced release of TNFα from PBMCs from healthy donors (ELISA, antibody 3 µg/ml)” value turned out to be 72.8%; the “percent inhibition of LPS-induced release of TNFα from THP-1 cells (ELISA, antibody 3 µg/ml)” value was 77.2%; the “percent inhibition of PMA-induced release of HB-EGF from PBMCs from healthy donors (ELISA, antibody 3 µg/ml)” value was 66.5%; the “percent inhibition of PMA-induced release of HB-EGF from THP-1 cells (ELISA, antibody 3 µg/ml)” value was found to be 80.5%. In addition, in the test with endogenous human iRhom2, the “percent inhibition of PMA-induced release of HB-EGF from U-937 cells (ELISA, antibody 3 µg/ml)” value was 99.2%; the “percent inhibition of PMA-induced release of IL-6R from PBMCs from healthy donors (ELISA, antibody 3 µg/ml)” value is 75.4%; the “percent inhibition of PMA-induced release of IL-6R from THP-1 cells (ELISA, antibody 3 µg/ml)” value amounted to 75.6%; the “percent inhibition of PMA-induced release of IL-6R from U-937 cells (ELISA, antibody 3.33 µg/ml)” value is 77.5%. Besides, in the test with endogenous human iRhom2, the “percent inhibition … (ELISA, antibody 10 µg/ml)” value was 3.3% and the “percent inhibition of PMA-induced release of TNFα from U-937 cells (ELISA, antibody 3.33 µg/ml)” value was 90.3%.
